The target in one test is FcRn protein (UniProt P55899). The experiment in a line: BLI (Octet ForteBio), FcRn on SA biosensor, antibody in PBST pH6.0.
Test [1] addresses monkey PD-1-hFc (monkey). Nature of the test: ELISA, coated monkey PD-1-hFc.
The target in the next test is CD64 protein (UniProt P12314). Nature of the test: BLI (Octet ForteBio), CD64 on SA biosensor, antibody in solution.
For test [2], the target named is monkey PD-1-hFc (monkey). Nature of the test: ELISA, coated monkey PD-1-hFc. This is another data set of the same source.
monkey PD-1-hFc (monkey), sequence (chain, as listed by the source limits assumed): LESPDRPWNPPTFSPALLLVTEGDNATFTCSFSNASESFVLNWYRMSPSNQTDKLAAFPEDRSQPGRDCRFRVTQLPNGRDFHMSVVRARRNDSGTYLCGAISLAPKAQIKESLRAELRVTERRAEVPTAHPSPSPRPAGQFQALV
Test [3] addresses full-length human PD-1 on CHO-hPD-1 cells (human) (UniProt Q15116). The experiment in a line: flow cytometry, FITC-labelled antibody on CHO-hPD-1 cells.
Test [4] addresses PD-1 on Jurkat-PD-1-NFAT cells (UniProt Q15116). Nature of the test: cell-based or functional assay.
The target of another test is human PD-1-His (human) (UniProt Q15116). The experiment in a line: BLI (Octet ForteBio), antibody on ProA biosensor, PD-1-His in solution.
human PD-1-His (human), sequence (Q15116 25-170): as the sequence (chain, as listed by the source limits assumed) above, with E2D, L19V, A35T, R67Q, A144T counted along it
Test [5] addresses full-length human PD-1 on CHO-hPD-1 cells (human) (UniProt Q15116). Nature of the test: flow cytometry on CHO-hPD-1 cells with FITC-labeled antibody.
The target of test [6] is human PD-1-ECD-mFc (human; mouse) (UniProt Q15116). Nature of the test: ELISA, coated human PD-1-mFc.
human PD-1-ECD-mFc (human; mouse), sequence (Q15116 25-170): as the sequence (chain, as listed by the source limits assumed) above, with E2D, L19V, A35T, R67Q, A144T counted along it

Like-named read-outs stand apart in the source and are kept apart here.

control antibody 3 (tirelizumab, IMGT ID: 757), sequence (HC): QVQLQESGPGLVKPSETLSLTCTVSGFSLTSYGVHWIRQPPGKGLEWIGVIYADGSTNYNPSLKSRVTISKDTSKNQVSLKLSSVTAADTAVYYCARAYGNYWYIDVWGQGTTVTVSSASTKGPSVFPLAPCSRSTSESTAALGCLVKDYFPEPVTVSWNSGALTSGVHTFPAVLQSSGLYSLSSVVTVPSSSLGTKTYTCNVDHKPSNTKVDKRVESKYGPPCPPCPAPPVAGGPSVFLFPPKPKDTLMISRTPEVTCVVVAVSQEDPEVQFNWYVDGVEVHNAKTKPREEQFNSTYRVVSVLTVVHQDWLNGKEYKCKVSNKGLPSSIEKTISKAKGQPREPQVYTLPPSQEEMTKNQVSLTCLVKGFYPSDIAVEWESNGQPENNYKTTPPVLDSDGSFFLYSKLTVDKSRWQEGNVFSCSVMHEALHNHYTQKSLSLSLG
control antibody 3 (tirelizumab, IMGT ID: 757), sequence (LC): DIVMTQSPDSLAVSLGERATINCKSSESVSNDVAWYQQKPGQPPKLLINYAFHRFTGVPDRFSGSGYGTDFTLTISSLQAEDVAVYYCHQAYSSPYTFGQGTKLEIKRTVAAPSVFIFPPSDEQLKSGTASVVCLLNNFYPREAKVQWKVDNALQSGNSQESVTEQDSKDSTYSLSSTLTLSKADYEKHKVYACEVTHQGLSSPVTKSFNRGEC
full-length human PD-1 on CHO-hPD-1 cells (human), sequence (Q15116 25-288): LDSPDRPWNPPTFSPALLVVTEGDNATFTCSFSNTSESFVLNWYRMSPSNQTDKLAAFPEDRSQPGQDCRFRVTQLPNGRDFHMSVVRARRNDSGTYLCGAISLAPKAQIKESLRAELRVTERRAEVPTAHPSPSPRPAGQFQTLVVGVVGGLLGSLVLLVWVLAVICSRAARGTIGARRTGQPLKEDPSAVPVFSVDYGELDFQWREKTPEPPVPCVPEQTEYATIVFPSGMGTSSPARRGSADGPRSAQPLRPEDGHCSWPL
FcRn protein, sequence (P55899 24-297 limits assumed, chain 1 of 2): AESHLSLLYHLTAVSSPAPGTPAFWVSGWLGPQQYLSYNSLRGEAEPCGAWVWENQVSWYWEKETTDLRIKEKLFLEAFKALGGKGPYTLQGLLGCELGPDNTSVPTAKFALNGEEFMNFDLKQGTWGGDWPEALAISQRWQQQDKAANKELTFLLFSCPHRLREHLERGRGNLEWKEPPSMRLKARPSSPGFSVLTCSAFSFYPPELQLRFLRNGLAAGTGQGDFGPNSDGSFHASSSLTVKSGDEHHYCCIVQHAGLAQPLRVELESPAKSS
FcRn protein, sequence (chain, as listed by the source limits assumed, chain 2 of 2): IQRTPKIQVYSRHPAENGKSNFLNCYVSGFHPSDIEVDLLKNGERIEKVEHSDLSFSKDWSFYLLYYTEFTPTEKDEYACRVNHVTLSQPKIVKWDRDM
CD64 protein, sequence (P12314 16-288 limits assumed): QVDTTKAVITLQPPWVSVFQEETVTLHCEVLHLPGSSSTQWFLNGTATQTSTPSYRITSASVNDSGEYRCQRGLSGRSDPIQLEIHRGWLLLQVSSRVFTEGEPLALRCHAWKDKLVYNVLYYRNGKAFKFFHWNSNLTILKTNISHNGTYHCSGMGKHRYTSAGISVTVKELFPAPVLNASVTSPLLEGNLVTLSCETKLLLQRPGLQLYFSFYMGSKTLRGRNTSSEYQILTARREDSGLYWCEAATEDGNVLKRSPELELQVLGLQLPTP
PD-1 on Jurkat-PD-1-NFAT cells, sequence (Q15116 25-288 limits assumed): as the sequence (Q15116 25-288) above

In the case of “control antibody 1 (pembrolizumab, IMGT ID: 472)”, the Kd with FcRn protein was 16.8 nM; with CD64 protein, 6.94 nM. Also, the EC50 with monkey PD-1-hFc (monkey) [1] came to 0.32 nM; with monkey PD-1-hFc (monkey) [2], 0.131 nM.
On to “control antibody 3 (tirelizumab, IMGT ID: 757)”, for which the EC50 amounted to 0.094 nM in [3], 0.278 nM with monkey PD-1-hFc (monkey) [1] and 0.121 nM in test [6]. Moreover, the Kd came out at 14.5 nM with FcRn protein and 5.95 nM with human PD-1-His (human). Besides, the EC50 by the PD-1/PD-L1 luciferase reporter system in test [4] came out at 3.79 nM. In addition, the EC50 (read off the curve) in [5] was 10 ng/mL.

The values above are taken from US20240425593A1.
